Laboratory results reported in the DeepSol protein solubility set.

assay: soluble on expression in E. coli; label from the status in PepcDB or PDB records

Row | Sequence | soluble on expression in E. coli
1 | MSLAQIVTSTKSCTVNPLRMSQPLGAALAFMGLRNCMPLLHGSQGCTSFGLVLFVRHFRESIPLQTTAMSEVATVLGGFENVEQAIVNIVGRTKPDVIGICTTGVTEIKGDDLDGYIKMVRANHPELANVALVPVSTPDFKGAFEDGFAATVTRIVETLVETPAEGAAPDADRINVLAGSHLTPGDIDELRDIIEAFGLVPTFLPDISGSLDGHVPDDFTPTTHGGVSVAEVVAMGGAGHTLAFGEHMRKAAAALEAKAGVPFTLLSRVTGLAAADELMATLAKISGRPVPPKYRRQRSQLVDAMLDGHFYFGGKSVAIGAEPDMLLNIGGWLADMGCTVSAAVTTTTSPSLAQVPSDEVLIGDLEDLERRAEDCDLLVTHSHGRQAAERLSVPLFRMGLPMFDRLGAVHQVAVGYRGTRDLIFAIGNLFIANIKEPDVNSWRSASACPDQTDAEGHHHHHH | soluble
2 | MSLAQTSDWDSVVAQAKKEGSVTFNVWYLQPQWRSFVKDFEQKYDIKVRIPEGSIDGNMNKLLAETRREQGKIDVIALSIAQLPITMGAKSLAKVDDLPGYQDAYHQLQNVDTQGYAVAFWGNQTGFAYDPQQMGDRPLPQTMEELQRFIDANPKRFGYNDPNNGGAGEAFIQRIVTTLSGDFSSESDTVDPTVIKDWQKGWQWFASNNNNITRTASGADSLTRLNDGELMLTPAWEDHLSGLQKTGAITSRLKFYVPEFGMPGGGNIASIAANSPHPAASRVFLNWLIQADTQKALNEAFGSTPMNKQLNADVKQPDTPVQFYGKAYSMQMKKEFARQVMTREGHHHHHH | soluble
3 | MSLARMSRRSRGAAGAQSVVKPETPMAQVLHQFNYCPCQYLEQNWIVPKQPWLLNLDGWRDNPNFNLWCLEEWALAPVPETAFNKPHHSLALLPPDALSTLMLTIGGALHSFAMRQVVLKKPKQCLNNVFGLDIARFLIQQGPMLLSQWPKGWQKALPDVMKEDEVERHMLKQGYAWMKFILASSSHDILLRWQFKLDQSLSQVKENTSWLVEEQRDLAYRLTKKIAKQVIPQWFHLLKEGHHHHHH | not soluble
4 | MSLARNVPEFGMESYRIEVGRMHGVKPANIVGAIANEAGLESRYIGRIDIRDDHSVLDLPAEMPHEILQHLKKVWVSGQQLQMRRIDTTETEGHHHHHH | soluble
5 | MSLARQNYHSEVEAAVNKQINIELYASYVYLSMSFYFDRDDVALPNIAKFFKEQSDEEREHATELMRVQNLRGGRVVLQDIQKPENDEWGTALKAFEAALALEKFNNESLLKLHSTAGNHNDAHLTDFIEEKYLDEQVKSINEFARMVANLKRVGPGVGEYVFDKEHFSD | soluble
6 | MSLASATDSRYGQKESSDQNFDYMFKILIIGNSSVGKTSFLFRYADDSFTPAFVSTVGIDFKVKTIYRNDKRIKLQIWDTAGQERYRTITTAYYRGAMGFILMYDITNEESFNAVQDWSTQIKTYSWDNAQVLLVGNKCDMEDERVVSSERGRQLADHLGFEFFEASAKDNINVKQTFERLVDVICEKMSESLDTADPAVTGAKQGPQLSDQQVPPHQDCACEGHHHHHH | soluble
7 | MSLASDPFEAPIPGLHACIDPIAVAHNLEVLRQRLGVGVDGPRIWATVKADAYGHGLHNVLPGLRAADGIAVRHLHEAHQCRRVGWSGPIMVYAGLTHEREAALLTLQQLHLVITDMTQLEWLPGKPLYSCAPWIWLRYIGATRLGGLDASEYRRAYARCRELQQHGALRGVGHLNHYANAASVGDLEREHADFEACIRGLPGPVSTCNSAAACVLPTMAARTDWVRPGLALYGVSPIPGREGHHHHHH | not soluble
8 | MSLASLSLAPVNIFKAGADEERAETARLTSFIGAIAIGDLVKSTLGPKGMDKILLSSGRDASLMVTNDGATILKNIGVDNPAAKVLVDMSRVQDDEVGDGTTSVTVLAAELLREAESLIAKKIHPQTIIAGWREATKAAREALLSSAVDHGSDEVKFRQDLMNIAGTTLSSKLLTHHKDHFTKLAVEAVLRLKGSGNLEAIHIIKKLGGSLADSYLDEGFLLDKKIGVNQPKRIENAKILIANTGMDTDKIKIFGSRVRVDSTAKVAEIEHAEKEKMKEKVERILKHGINCFINRQLIYNYPEQLFGAAGVMAIEHADFAGVERLALVTGGEIASTFDHPELVKLGSCKLIEEVMIGEDKLIHFSGVALGEACTIVLRGATQQILDEAERSLHDALCVLAQTVKDSRTVYGGGCSEMLMAHAVTQLANRTPGKEAVAMESYAKALRMLPTIIADNAGYDSADLVAQLRAAHSEGNTTAGLDMREGTIGDMAILGITESFQVKRQVLLSAAEAAEVILRVDNIIKAAPRKRVPDHHEGHHHHHH | not soluble
9 | MSLASRRSKLIAVVVPQINNNMFVDTIQSLSDELARRGYHILLCVAGYTEQTEAELVATLLSRRPDGVVLTGIHHTIELKKVILNAAIPVVEIWDLTPTPLDMLVGFSHEKVGQATGEYLLSKGYRRPGLLWTADRRAAQRKQGLCSVLQRHAIHAVPQVDVPLPASLSLGRSGLSQLFDEGTFDVIVCSSDTLAQGAMMEAESRGLRIPHDLAVIGFGDLDFAASNRPSITTVSVDRRAIGQRAATLLADRIEQKPCAEAIVDIGFHLIGRESAEGHHHHHH | not soluble
10 | MSLASTVVIKEGSGSGAVAACTVPQVLEQIAQSFPESIAAISERGRITFAELEFRSNQLARLLVKRGVKVGAIVVLMTGRSIDTLIGMTAILKAGGVYMPLDVGLGPEAISGAIQDAQPALVLTEHQPALIDAIEQRRLSDELDASRLEPGDPLALELTPSLPAYVMFTSGSTGRPKGVVVPHRAIVRLVVDTDFMTLSPATVMLHAAPLAFDASTLEIWGPLLNGGQIVIVEDAVLSVDRIAETLGRFSVNAAWLTAGLFHLMVDERPEALSGLTTLLAGGDVLSPAHVRRAMALLPDCTIVNGYGPTENTTFTCCYSIPRTGWGDGPVPIGFPISGTSVHILSDTLEPVADGEEGQLCAGGIGLALGYLNRPELTAEKFIVDPLSDDPAARLYLTGDYVRRRSDGAIEFRGRRDRQVKINGVRIELDGVEQALRQDPVLADAAVVLSADRGDAKRIVAFLKPLPGDAAGDLEAGVIRRLKEQFPAQAIPSTIKVVDELPLNKNGKIDRAKLLSDLIATEQLGAGTDEEDFSDDSVGSIVADIWSALLGKSVDARANLFDLGATSLQMIAAHERIQAAIGIRFPVTDLFAHPSIAEFQACLDGASHRSLAIAGAAREGHHHHHH | soluble
11 | MSLATFEKQKIEQAIGSIQGALGVLEKGQMTEIMPPKRIQALPIQQNVDTPEAINAFASMITEYSEMTKISDGPAVKMEEAEDGFILSIPSELLFESGSATITNKEGILFLKRTALEINKLSNDMHIKVIGHTDNDRLRPTATYKDNWELSIARGVNVAKMLLEERVNPARISAGGNGEFDPVASNATPEGKAKNRRVDLYFFSVSKNEEEIKKSQKNSEGHHHHHH | soluble
12 | MSLATLDVNPELYQAQLADKIARLKAMFVDYSMPELEVFESPVANYRMRAEFRIWHEGDDMYYIMFNQETREKYRVDQFPAASRLINDLMPLLMDAMKGSPILRHKLFQVDFLSTLSGEILVSLLYHRQLSEEWITAAQALKQRLNDEGFNLNLIGRARKMKVVLDRDYVVENLQVNGQPYVYKQVENSFTQPNAKVAEKMLEWAVDCTQESKGDLLELYCGNGNFSLALAQNFERVLATELAKPSVEAAQFNIAANQIGNVQIIRMSAEEFTQAMEGKREFNRLKDAGVDLQSYRCNTIFVDPPRSGMDIDTCKMVQGYERILYISCNPETLQENLQVLGETHQVVRFALFDQFPYTHHMEAGVMLERKKEGHHHHHH | soluble
13 | MSLATPSFGNSSPQLTFTHVANFMNDAAADVSAVDAKQLAQIRQFLKANKTNLIESLNTIRQNVTSSGDHNKLRSTIANLLQINVDNDPFFAQSEDLSHAVEFFMSERSSRLHIVYSLLVNPDIDLETYSFIDNDRFNVVGKLISIISSVIQNYDIITASSLAHDYNNDQDMFTIVSLVQLKKFSDLKFILQILQILNLMILNTKVPVDIVNQWFLQYQNQFVEFCRNINSTDKSIDTSSLQLYKFQNFQDLSYLSETLISRISSLFTITTILILGLNTSIAQFDIQSPLYMDTETFDTVNSALENDVATNIVNEDPIFHPMIHYSWSFILYYRRALQSSESFDDSDITKFALFAESHDVLQKLNTLSEILSFDPVYTTVITVFLEFSLNFIPITASTSRVFAKIISKAPEQFIENFLTNDTFEKKLSIIKAKLPLLNEEGHHHHHH | soluble
14 | MSLAVLPDVPKSKDMKHRPRFLPSIGPMKKRVAFFSGCLMDTMFLPTNNATLKLLQLAGCDIVIPPEQACCGALHGHSGEKNTGKELAKQNIAAFEALDVDAVITNAGGCGAFLTEYDHLLKDDPEWSERAAAFVQKLKDFSSVLVELDFHQMDLALETPQVVTYQDSCHLRNVMHTSLEPRQLLKSIKGAEFKEMEKADSCCGSAGIYNIVEVEMSMKILDSKMAAVKATEAILIVTANPGCLLQMKLGIEREGLSGKVRAVHLADLLLEAAGHKTSEGHHHHHH | soluble
15 | MSLAVNNIIKRIRNIMRQDAGINGDAQRIEQMTWMIFLKVYDTQEETWEYKASRESKTYQSIIPKDLRWRNWAVDEKDGEALTGEALLSFVNEKLFPALKNLPVDANTPRAKSIVQETFADLNQYMKNGTLLRQVVNIVNEIEFDDADDRHTFGDIYEGILKDLQSAGNAGEFYTPRALTDFIVMMLDPKLGETFGDFTSGTGGFLTSALNYMGKSVRSAEDGEKLQNAVVGQEWKPLPYLLSITNLLLHDIEAPNIANCDSLGTNVTDFKETDKVDVIGMNPPYGGSTEDSVKNNFPLRYRSSETADLFIALIMYRLKAGGRCGVIIPDGFLFGTDGAKLALKENLLRKFNLHTIIRLPGSIFSPYTSIATNILFFNNEEAEGCEEGFKTKETWFYRLDMPEGYKHFSKNKPMKVEHTLPIQEWWNDRKEIVSSETGEKSRVFTAQQLLDLNCNFDQCKFPKEEEEILPPAEGHHHHHH | soluble
16 | MSLCGIAGTLNSSCFSSKKLLAALAHRGPSGHGEFSHQGVNLFHARLSIQDLSPAGAQPMHRHHLSIVFNGEIYNHLELRAKVADYPFSTRSDTETILALFERFGERSLEWMDGMFALAILDQRTHKLFLARDRMGKKPLFYYQEGEEFLFASELNALLTLKPLQIDHAKLSAFLRCGFFPHDGAPYQGVQSLPQGSYAFIDLHHPRPLSPQRYFDLLSLYQAPKIEGFEASKEAVELALKESVKNRLESSDLEVGSFLSGGIDSSLITALASFFTPKLKTFTVAFEGAYDESSLAELVAKRYKTDHTTLHLNPSKLKEEVKGILACYGRPFMDSSAIPSYYVSQEAKKHLTVILNGDGADELFGGYRRYVPMSHGWLKLARPLSLLLPLLPLPKEKKSLYNYLHRLLAMSRKRGLDFYLSATIDSFEDAYAFSPNPHTQTLDQEITQILEDSSLSSLSKMLYLDSQNLLLSDLLPKMDIATMAHSLEGRSPFLGKSLLEVAPRIKDEYKIFGKSTKFILRELAKKYLPHALLEQPKRGFEVPLRAWVEGELKELIFDSLSKNCLSRELIESRFVDALLDKPQDFAPEKRAKMLWSLFSLEVWHEHYQKACEEGHHHHHH | soluble
17 | MSLDAITVDLNYDKNNVAVITPVWSQEWSVANVLGGWVCRSNRNENEGACEETHLVWWYAFGAYSKIRLRFREQISHAEITLILLGSVRDACYTGVINMNAAACQWGRSLKLRIPSEELAKIPTSGTWKATLVLDYLQWGGDDPLGTSTTDITLNVTDHFAENAAIYFPQFGTATPRVDLNLHRMNASQMSGRANLDMCLYDGGVKARSLQMKIEGSNKSGTGFQVIKSDSADTIDYAVSMNYGGRSIPVTRGVEFSLDNVDKAATRPVVLPGQRQAVRCVPVPLTLTTQPFNIREKRSGEYQGTLTVTMLMGTQTPEGHHHHHH | not soluble
